The source of these data is publication PMC10978878 (Nature Communications, 2024).

Assay [1] addresses BA.2.12.1 spike, recombinant trimer that retains the native sequence (SARS-CoV-2, UniProt P0DTC2). The assay is described as follows: cryo-EM structure. Conditions: both partners purified.
In assay [2] the target is BA.4 spike, recombinant trimeric S-twin-Strep, prefusion stabilized (SARS-CoV-2, UniProt P0DTC2). The assay is described as follows: cryo-EM structure. To be noted: both partners purified.

B1: SD1-2 Fab (Fab, V domains shown)
VH: QVQLVQSGPGLVKPSQTLSLTCSVSGDSISSGTYYWSWIRLPAGQGLEWIGRVHSSGSTSYNPSLKSRVTISVDTSKNNFSLKLSSVTAADTAVYYCVRLDNCSAGYCHAFDIWGQGTMVTVSS
VL: QSVLTQPASVSGSPGQSITISCTGTSSDVGSYNLVSWYQQHPGKAPKVMIYEVSKWPSGVSNRFSGSKSGNTASLTISGLQAEDEADYYCCSYAGSGTYVFGTGTKVTVL
Turning to B1, the stoichiometry N (commonly a count of units in the complex or per binding partner) in assay [1] came out at 3 Fab per spike trimer.

B2: SD1-1 Fab (Fab, V domains shown)
VH: QVQLVESGPGLVKPSETLSLTCSVSGGSIDNFYWSWIRQPPGKGLEWIGNIYYGGSGNYNPSLKSRVTISVDTSKNQVSLKLRSVTAADTAVYYCARDSVWYTGSYGLIYWGPGTLVTVSS
VL: SVVTQPASVSGSPGQSITISCTGTSSDVGSYNLVSWFQQHPGKAPKLMIYEVTKRPSGISNRFSGSKSGNTASLTISRLQAEDEADYYCCSYAGSSTVVFGGGTKLTVL
Consider B2, for which the “stoichiometry N” value in assay [2] is 3 Fab per spike trimer.

B3: SD1-3 Fab (Fab, V domains shown)
VH: QVQLVESGGGLVQPGGSLRLSCTASGVTFSSYAMSWVRQAPGKGLEWVSGISGSGDSTYYADSVKGRFTISRDNSKNTLYLQMNSLRVEDTAVYYCATHYCSGGSCPFDYWGQGTLVTVSS
VL: PSALTQPPSVSVSPGQTASITCSGDKLGNKYAYWYQQKPGQSPVLVIFQDTMRPSGIPERFSASNSGNTATLTISGTQSIDEADYYCQAWDSNTAVFGGGTKLTVL
With B3, the “stoichiometry N” value in assay [1] is 3 Fab per spike trimer.
